Source: the supplement of paper PMC7877785
± gives the uncertainty stated by the source.

Assay: self-splicing fitness, log relative to wild type (ln ratio); higher = more splicing; Tetrahymena group I intron in knt gene, E. coli kanamycin selection, DiMSum; sequences stand for … in CUCUCU…GGAGGGAAAAGUUAUCAGGCAUGCACCUGGUAGCUAGUCUUUAAACCAAUAGAUUGCAUCGGUUUAAAAGGCAAGACCGUCAAAUUGCGGGAAAGGGGUCAACAGCCGUUCAGUACCAAGUCUCAGGGGAAACUUUGAGAUGGCCUUGCAAAGGGUAUGGUAAUAAGCUGACGGACAUGGUCCUAACCACGCAGCCAAGUCCUAAGUCAACAGAUCUUCUGUUGAUAUGGAUGCAGUUCACAGACUAAAUGUCGGUCGGGGAAGAUGUAUUCUUCUCAUAAGAUAUAGUCGGACCUCUCCUUAAUGGGAGCUAGCGGAUGAAGUGAUGCAACACUGGAGCCGCUGGGAACUAAUUUGUAUGCGAAAGUAUAUUGAUUAGUUUUGGAGUACUCGUGGUCG
Outline: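 DiMSum derived fitness as the error-weighted combination of fold changes across replicates, kanamycin versus no kanamycin, normalised to wild type. E. coli BL21(DE3) held the library, which randomised all eight P1ex-region intron nucleotides within the knt kanamycin-resistance gene on pET-22b(+). Six replicate transformations grew overnight at 37°C or 30°C on LB agar with or without 25 μg/mL kanamycin, also containing 100 μg/mL carbenicillin, 50 μM IPTG and 0.2% rhamnose, and pooled colonies were amplicon-sequenced on an Illumina HiSeq 2500.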

Sequence | self-splicing fitness (ln) (30 °C) | self-splicing fitness (ln) (37 °C)
GAUGAGCAAUAUUACGGGCU | -2.22 ± 0.4 | –
UUUCAGCAAUAUUACGCCCG | -0.734 ± 0.22 | 0.939 ± 0.3
UCCUAGCAAUAUUACGCUAA | -2.98 ± 0.31 | -3.02 ± 0.29
CAUCAGCAAUAUUACGAUGG | -0.479 ± 0.057 | -0.173 ± 0.074
CACCAGCAAUAUUACGGGAC | -4.05 ± 0.13 | -2.05 ± 0.1
UAAGAGCAAUAUUACGAUAC | -3.55 ± 0.26 | -3.09 ± 0.4
GACCAGCAAUAUUACGACGA | -0.236 ± 0.091 | 0.15 ± 0.1
AUGUAGCAAUAUUACGUCCG | -2.71 ± 0.13 | -1.39 ± 0.12
UACAAGCAAUAUUACGAAUA | -1.56 ± 0.087 | -0.567 ± 0.1
CCAUAGCAAUAUUACGCUUA | -2.56 ± 0.26 | -3.5 ± 0.33
CCGGAGCAAUAUUACGGCGA | -3.92 ± 0.33 | -2.42 ± 0.48
UCCGAGCAAUAUUACGACUC | -3.61 ± 0.21 | -2.87 ± 0.34
UGGUAGCAAUAUUACGGAUU | -3.77 ± 0.4 | -0.91 ± 0.31
GUCCAGCAAUAUUACGUGUA | -0.96 ± 0.073 | 0.159 ± 0.077
AUCUAGCAAUAUUACGUUUU | -2.93 ± 0.11 | -1.93 ± 0.12
CAAAAGCAAUAUUACGUGCA | -2.95 ± 0.12 | -1.96 ± 0.12
GCGCAGCAAUAUUACGGCUA | -0.44 ± 0.092 | 0.0852 ± 0.097
GUACAGCAAUAUUACGAUUU | -1.28 ± 0.11 | -0.49 ± 0.089
GGUUAGCAAUAUUACGGAUC | -1.53 ± 0.18 | 0.131 ± 0.28
GGCUAGCAAUAUUACGUAGC | -4.64 ± 0.42 | -2.16 ± 0.43
AUUCAGCAAUAUUACGCCUC | -1.43 ± 0.15 | 0.286 ± 0.16
GGGGAGCAAUAUUACGAGGG | -2.13 ± 0.19 | –
AACGAGCAAUAUUACGCUAG | -3.61 ± 0.25 | -2.92 ± 0.43
GCCGAGCAAUAUUACGCGUA | -0.983 ± 0.069 | -0.591 ± 0.066
GAUUAGCAAUAUUACGUGUG | -2.13 ± 0.077 | -1.61 ± 0.075
UCUUAGCAAUAUUACGGACU | -2.76 ± 0.34 | -0.0771 ± 0.26

Sequence | self-splicing fitness (ln) (30 °C) | self-splicing fitness (ln) (37 °C)
GCAGAGCAAUAUUACGCAUC | -3.14 ± 0.34 | –
AAACAGCAAUAUUACGUGCC | -2 ± 0.1 | -1.31 ± 0.13
UAGGAGCAAUAUUACGUAUU | -1.97 ± 0.36 | -2.45 ± 0.41
UGAAAGCAAUAUUACGCAUA | -1.31 ± 0.098 | -0.274 ± 0.11
GCUGAGCAAUAUUACGUUUG | -2.85 ± 0.17 | -2.76 ± 0.25
CGUGAGCAAUAUUACGUAGG | -1.12 ± 0.089 | -1.39 ± 0.12
GGUGAGCAAUAUUACGUGGA | -2.86 ± 0.36 | -3.3 ± 0.28
AUCGAGCAAUAUUACGAAAC | -2.27 ± 0.31 | –
UAAUAGCAAUAUUACGGGCA | -0.899 ± 0.2 | -0.61 ± 0.19
CACUAGCAAUAUUACGAGGC | -4.08 ± 0.42 | -2.38 ± 0.2
CCGUAGCAAUAUUACGCGAU | -2.48 ± 0.22 | -3.66 ± 0.35
UUUCAGCAAUAUUACGCCCA | -1.19 ± 0.22 | -0.699 ± 0.22
ACUAAGCAAUAUUACGCACG | -1.68 ± 0.1 | -0.457 ± 0.13
AUAAAGCAAUAUUACGUGCG | -0.493 ± 0.083 | 0.137 ± 0.1
CGUUAGCAAUAUUACGCUUU | – | -2.41 ± 0.3
GUAAAGCAAUAUUACGUUCU | -0.888 ± 0.05 | -0.135 ± 0.071
CAAUAGCAAUAUUACGAUCU | -3.45 ± 0.22 | -1.91 ± 0.21
GCAUAGCAAUAUUACGGGCU | -2.22 ± 0.23 | -0.579 ± 0.17
CGAAAGCAAUAUUACGAUCU | -0.599 ± 0.076 | 0.313 ± 0.11
UUGGAGCAAUAUUACGAGUU | -4.04 ± 0.26 | -3.45 ± 0.34
GGCGAGCAAUAUUACGGGUA | -3.42 ± 0.26 | -2.79 ± 0.2
GAUCAGCAAUAUUACGCAUC | -4.75 ± 0.31 | -3.11 ± 0.24
AGCGAGCAAUAUUACGGCAA | -1.93 ± 0.13 | -1.71 ± 0.15
CGUGAGCAAUAUUACGAGUA | – | -0.918 ± 0.47
ACUCAGCAAUAUUACGUCUC | -1.8 ± 0.072 | -0.51 ± 0.083
GAUAAGCAAUAUUACGUACG | -1.67 ± 0.1 | -0.494 ± 0.11

Sequence | self-splicing fitness (ln) (30 °C) | self-splicing fitness (ln) (37 °C)
AGAGAGCAAUAUUACGUUGG | -3.15 ± 0.14 | -2.76 ± 0.18
UUGCAGCAAUAUUACGAUAA | -0.501 ± 0.11 | 0.0102 ± 0.12
AGUAAGCAAUAUUACGCUAU | -4.08 ± 0.32 | -1.41 ± 0.13
ACUGAGCAAUAUUACGCUCC | -2.62 ± 0.45 | -1.18 ± 0.27
CAACAGCAAUAUUACGUGGG | -3.25 ± 0.096 | -1.11 ± 0.075
CUCAAGCAAUAUUACGAUAA | -3.78 ± 0.16 | -1.93 ± 0.12
ACACAGCAAUAUUACGACAA | -1.86 ± 0.11 | -0.755 ± 0.14
CUGAAGCAAUAUUACGGGAC | -0.993 ± 0.072 | -0.612 ± 0.1
GAACAGCAAUAUUACGAGCU | -1.99 ± 0.091 | -1.18 ± 0.09
CUUUAGCAAUAUUACGCCCG | -0.47 ± 0.17 | 0.513 ± 0.24
CGUAAGCAAUAUUACGCGUC | -3.79 ± 0.21 | -2.87 ± 0.19
ACAAAGCAAUAUUACGUACA | -1.6 ± 0.083 | -0.786 ± 0.089
CAGAAGCAAUAUUACGCUUG | -4.25 ± 0.16 | -2.99 ± 0.14
GCGAAGCAAUAUUACGAUGU | -2.82 ± 0.15 | -1.42 ± 0.12
GUGUAGCAAUAUUACGACAC | -2.68 ± 0.18 | -2.17 ± 0.2
UUACAGCAAUAUUACGUGGA | -1.88 ± 0.095 | -1.41 ± 0.094
ACCGAGCAAUAUUACGAUUA | -2.31 ± 0.17 | -3.01 ± 0.25
AAUCAGCAAUAUUACGUCUU | 0.123 ± 0.06 | 0.106 ± 0.079
CUGAAGCAAUAUUACGCGAG | -0.671 ± 0.088 | -0.527 ± 0.11
AGCCAGCAAUAUUACGCUUA | -2.09 ± 0.11 | -1.4 ± 0.093
AGAAAGCAAUAUUACGCGCU | -0.789 ± 0.15 | -1.26 ± 0.2
UUGCAGCAAUAUUACGGGAG | -1.53 ± 0.11 | -1.58 ± 0.13
CUGGAGCAAUAUUACGUAGA | – | -2.67 ± 0.2
CUUCAGCAAUAUUACGCUAC | -2.4 ± 0.22 | -2.25 ± 0.37
AGUAAGCAAUAUUACGCGGC | – | -3.37 ± 0.42
GCGUAGCAAUAUUACGCAGC | -3.61 ± 0.47 | -2.75 ± 0.38
